Measured values reported in US20240343803A1.

Experiments:
[1] = target: cynomolgus monkey TIGIT ECD-mFc (cynomolgus monkey); test: ELISA, cynomolgus TIGIT ECD-mFc captured by anti-mouse IgG; negative control
[2] = target: human PVRIG-mFc protein (Acro, PVG-H5253) (human) (UniProt Q6DKI7); test: HTRF competition, PVRIG-mFc with Bio-CD112-His as competitor; negative control
[3] = target: human PVRIG (AcroBiosystems, Cat NO. PVG-H52H4) (human) (UniProt Q6DKI7); test: ELISA, coated human PVRIG; negative control
[4] = target: cynomolgus monkey PVRIG (Novoprotein, Cat NO. C09B) (cynomolgus monkey); test: ELISA, coated cynomolgus PVRIG; negative control
Sequence of cynomolgus monkey PVRIG (Novoprotein, Cat NO. C09B) (cynomolgus monkey) (chain, as listed by the source): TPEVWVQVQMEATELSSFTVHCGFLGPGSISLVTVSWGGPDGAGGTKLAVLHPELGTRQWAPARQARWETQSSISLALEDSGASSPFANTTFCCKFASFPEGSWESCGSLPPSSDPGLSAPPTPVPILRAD

Sequence of human PVRIG-mFc protein (Acro, PVG-H5253) (human) (Q6DKI7 41-171 limits assumed, form in doubt): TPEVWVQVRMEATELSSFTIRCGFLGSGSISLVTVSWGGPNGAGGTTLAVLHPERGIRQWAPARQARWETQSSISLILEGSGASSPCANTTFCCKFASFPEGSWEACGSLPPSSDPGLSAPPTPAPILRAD
Sequence of human PVRIG (AcroBiosystems, Cat NO. PVG-H52H4) (human) (Q6DKI7 41-171 limits assumed, form in doubt): as above
Sequence of cynomolgus monkey TIGIT ECD-mFc (cynomolgus monkey) (chain, as listed by the source limits assumed): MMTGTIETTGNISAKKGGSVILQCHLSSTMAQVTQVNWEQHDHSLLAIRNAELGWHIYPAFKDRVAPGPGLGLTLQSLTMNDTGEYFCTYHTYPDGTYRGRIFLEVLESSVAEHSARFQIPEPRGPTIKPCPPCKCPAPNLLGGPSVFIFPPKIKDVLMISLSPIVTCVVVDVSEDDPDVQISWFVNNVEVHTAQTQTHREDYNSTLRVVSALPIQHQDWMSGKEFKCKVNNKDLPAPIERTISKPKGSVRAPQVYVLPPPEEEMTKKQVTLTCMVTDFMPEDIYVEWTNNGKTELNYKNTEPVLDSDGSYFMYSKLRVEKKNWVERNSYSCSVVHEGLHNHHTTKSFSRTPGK

EC50 [1]: 0.687 nM | IC50 [2]: 0.0302 nM | EC50 [3]: 40300 nM | EC50 [4]: 4 nM
Substance: anti-Fluorescein-hIgG1 (antibody)
